Reference: patent US20070071745A1 (Hoffmann-La Roche, published 2007)
Residue numbers refer to the chain shown, from its start. Names and notes keep the numbering of the source. Each block holds one binder with its values, some of them ahead of it.

Assays:
human CD20 [1] = target: T1, human CD20 (human, UniProt P11836 1-297); assay: flow cytometry on Raji B-cell lymphoma cells (FIG. 11)
T1 construct: whole, on cells; also called human CD20 antigen; target antigen (CD20)
T1 sequence (looked up): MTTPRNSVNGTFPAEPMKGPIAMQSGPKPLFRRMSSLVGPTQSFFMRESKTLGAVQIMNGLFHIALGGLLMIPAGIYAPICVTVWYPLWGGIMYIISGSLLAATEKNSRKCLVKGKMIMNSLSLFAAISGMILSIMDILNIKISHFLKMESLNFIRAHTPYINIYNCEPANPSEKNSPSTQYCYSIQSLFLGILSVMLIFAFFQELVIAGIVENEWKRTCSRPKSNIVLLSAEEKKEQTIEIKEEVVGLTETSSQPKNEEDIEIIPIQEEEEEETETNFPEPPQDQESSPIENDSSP
Description: (§1) 200,000 cells in 180 μl FACS buffer (PBS containing 2% FCS and 5 mM EDTA) were transferred to 5 ml polystyrene tubes. Next, 20 μl of 10-fold concentrated anti-CD20 antibody samples (1-5000 ng/ml final concentration) or PBS only were added, and the tubes were incubated at 4° C. for 30 min. Subsequently, samples were washed twice with FACS buffer and pelleted at 300×g for 3 min. Supernatant was aspirated off and cells were taken up in 100 μl FACS buffer. Next, 1 μl anti-Fc-specific F(ab′)2-FITC fragments (Jackson Immuno Research Laboratories, USA) was added and the tubes were incubated at 4° C. for 30 min. Samples were washed twice with FACS buffer and taken up in 500 μl of FACS buffer containing 0.5 μg/ml PI for analysis by Flow Cytometry. Binding was determined by plotting the geometric mean fluorescence against the antibody concentrations.

human CD20 [2] = target: T1, human CD20; assay: flow cytometry on Raji B-cell lymphoma cells (FIG. 22)
Description: as §1

human CD20 [3] = target: T1, human CD20; assay: flow cytometry on Raji B-cell lymphoma cells (FIG. 2)
Description: as §1

human CD20 [4] = target: T1, human CD20; assay: flow cytometry on Raji B-cell lymphoma cells (FIGS. 2, 9 to 13)
Description: as §1

human CD20 [5] = target: T1, human CD20; assay: flow cytometry on Raji B-cell lymphoma cells (methods described above)
Description: as §1

human CD20 [6] = target: T1, human CD20; assay: flow cytometry on Raji B-cell lymphoma cells (FIGS. 2, 9 to 13); the same paragraph adds that the binding of B-HL11 to B-HL17 does not differ drastically in EC50 and stoichiometry
Description: as §1

B1: B-HH1 paired with the BKV1 humanized B-ly1 light chain (antibody, human IgG1, V domains shown)
VH: QVQLVQSGAEVKKPGSSVKVSCKASGYTFSYSWMSWVRQAPGQGLEWMGRIFPGDGDTDYAQKFQGRVTITADKSTSTAYMELSSLRSEDTAVYYCARNVFDGYWLVYWGQGTLVTVSS
VL: DIVMTQTPLSLPVTPGEPASISCRSSKSLLHSNGITYLYWYLQKPGQSPQLLIYQMSNLVSGVPDRFSGSGSGTDFTLKISRVEAEDVGVYYCAQNLELPYTFGGGTKVEIKR
notes: also called BHH1-BKV1
binding result (human CD20 [1]): binds

B2: B-HH8 with the BKV1 light chain (antibody, human IgG1, V domains shown)
VH: B1 VH with S16A, S30T, S35N, A61N, Q62G, Q65K
VL: B1 VL
binding result (human CD20 [2]): binds

B3: B-HL12 (G9A, V48M) paired with the BKV1 light chain (antibody, human IgG1, V domains shown)
VH: EVQLVESGAGLVKPGGSLRLSCAASGFTFSYSWMNWVRQAPGKGLEWMGRIFPGDGDTDYNGKFKGRVTITADKSTSTAYMELSSLRSEDTAVYYCARNVFDGYWLVYWGQGTLVTVSS
VL: B1 VL
binding result (human CD20 [3]): binds

B4: BHH2-BKV1 humanized IgG1 B-ly1 anti-human CD20 antibody (antibody, V domains shown)
VH: B1 VH with T28A, S35N, A61N, Q62G, Q65K
VL: B1 VL
notes: Non-glycoengineered form; also called BHH2-BKV1-wt; humanized B-ly1
binding result (human CD20 [4]): binds

B5: B-HH3 paired with the BKV1 humanized B-ly1 light chain (antibody, human IgG1, V domains shown)
VH: B1 VH with T28A, S35N, A61N, Q62G, Q65K, Y95L
VL: B1 VL
notes: also called BHH3-BKV1
binding result (human CD20 [1]): binds

B6: B-HH9 with the BKV1 light chain (antibody, human IgG1, V domains shown)
VH: B1 VH with S16A, S35N, A61N, Q62G, Q65K
VL: B1 VL
binding result (human CD20 [2]): binds

B7: BHL17-BKV1 (antibody, human IgG1, V domains shown)
VH: B3 VH with A9G
VL: B1 VL
notes: also called BHL17-BKV1 W1; B-HL17 (V48M)
binding result (human CD20 [3]): binds

B8: BHL13-BKV1 (antibody, human IgG1, V domains shown)
VH: B3 VH with A9G, L11V
VL: B1 VL
notes: also called B-HL13 (L11V, V48M)
binding result (human CD20 [3]): binds

B9: BHL8-BKV1 (antibody, human IgG1, V domains shown)
VH: B3 VH with A9G, M48V
VL: B1 VL
notes: also called BHL8-BKV1 wt
binding result (human CD20 [4]): binds

More lines, now with the values ahead:

binding result (human CD20 [5]): binds
B10: BHH2-B (K12V) paired with a BKV1 light chain (antibody, human IgG1, V domains shown)
VH: B1 VH with K12V, T28A, S35N, A61N, Q62G, Q65K
VL: B1 VL

binding result (human CD20 [3]): binds
B11: BHL16-BKV1 (antibody, human IgG1, V domains shown)
VH: B3 VH with A9G, L20V
VL: B1 VL
notes: also called BHL16-BKV1 W1; B-HL16 (L20V, V48M)

binding result (human CD20 [3]): binds
B12: BHL14-BKV1 (antibody, human IgG1, V domains shown)
VH: B3 VH with A9G, V12K
VL: B1 VL
notes: also called B-HL14 (V12K, V48M)

binding result (human CD20 [5]): binds
B13: BHH2-A (V11L) paired with a BKV1 light chain (antibody, human IgG1, V domains shown)
VH: B1 VH with V11L, T28A, S35N, A61N, Q62G, Q65K
VL: B1 VL

binding result (human CD20 [3]): binds
B14: BHL15-BKV1 (antibody, human IgG1, V domains shown)
VH: B3 VH with A9G, G16S
VL: B1 VL
notes: also called BHL15-BKV1 W1; B-HL15 (G16S, V48M)

binding result (human CD20 [6]): binds
B15: BHL11-BKV1 (antibody, human IgG1, V domains shown)
VH: B3 VH with E1Q, A9G, M48V
VL: B1 VL
notes: also called B-HL11 (having the mutation E1Q)
